# Measurements taken from US10239925B2, “Peptides and combination of peptides for use in immunotherapy against ovarian cancer and other cancers” (IMMATICS BIOTECHNOLOGIES GMBH, priority 2015, dated 2019).
# Biological target: HLA-A*02:01 (Homo sapiens, UniProt P04439, D140Y/D185E/D98H/E176V/E277Q/G131W/G231S/I119V/I121R/I166T/I218V/L300P/L318F/N151K/N90K/P208A/P217A/Q86G/Q94H/R138H/R169H/T345S)
# Experiment: MHC binding assay (UV-ligand exchange, anti-β2m ELISA, peptide exchange yield)
# Settings: binding to HLA-A*02:01
# Summary of the method: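 Peptide-MHC complexes formed by UV-ligand exchange, cleaving a UV-sensitive placeholder peptide in favour of the test peptide. Exchange yield measured by ELISA: monomers diluted 100-fold onto streptavidin-coated plates, 1 h 37 °C, detected with 2 ug/ml HRP anti-β2m and TMB, absorbance at 450 nm.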
row,"Peptide exchange (MHC class I binding score, peptide exchange yield)",Substance
1,“++” (>20% = ++),145 (FLATSGTLAGI; listed as Homo sapiens) [compound 145]
2,“+++” (>50 = +++),162 (YQQAQVPSV; listed as Homo sapiens) [compound 162]
3,“++++” (>75% = ++++),568 (TLYDIAHTPGV; listed as Homo sapiens) [compound 568]
4,“+++” (>50 = +++),74 (ALLDPEVLSIFV; listed as Homo sapiens) [compound 74]
5,“+++” (>50 = +++),296 (FMEGAIIYV; listed as Homo sapiens) [compound 296]
6,“++++” (>75% = ++++),109 (IILSILEQA; listed as Homo sapiens) [compound 109]
7,“++” (>20% = ++),154 (ALDDGTPAL; listed as Homo sapiens) [compound 154]
8,“++” (>20% = ++),234 (ALMEDTGRQML; listed as Homo sapiens) [compound 234]
9,“+++” (>50 = +++),598 (FLFPHSVLV; listed as Homo sapiens) [compound 598]
10,“++” (>20% = ++),453 (KLLEATSAV; listed as Homo sapiens) [compound 453]
11,“+++” (>50 = +++),72 (SLLELDGINL; listed as Homo sapiens) [compound 72]
12,“+++” (>50 = +++),125 (VQIHQVAQV; listed as Homo sapiens) [compound 125]
13,“+++” (>50 = +++),569 (KLVDRTWTL; listed as Homo sapiens) [compound 569]
14,“+++” (>50 = +++),281 (ILRESTEEL; listed as Homo sapiens) [compound 281]
15,“+++” (>50 = +++),165 (SLLDEIRAV; listed as Homo sapiens) [compound 165]
16,“+++” (>50 = +++),571 (LLLTTIPQI; listed as Homo sapiens) [compound 571]
17,“+++” (>50 = +++),193 (QLLDADGFLNV; listed as Homo sapiens) [compound 193]
18,“++” (>20% = ++),176 (YLMEGSYNKVFL; listed as Homo sapiens) [compound 176]
19,“+++” (>50 = +++),190 (FLSSLTETI; listed as Homo sapiens) [compound 190]
20,“+++” (>50 = +++),6 (VLVSDGVHSV; listed as Homo sapiens) [compound 6]
21,“+++” (>50 = +++),350 (ALLDVTHSELTV; listed as Homo sapiens) [compound 350]
22,“+++” (>50 = +++),487 (LLINSVFHV; listed as Homo sapiens) [compound 487]
23,“+++” (>50 = +++),136 (YLADPSNLFVV; listed as Homo sapiens) [compound 136]

row,"Peptide exchange (MHC class I binding score, peptide exchange yield)",Substance
1,“+++” (>50 = +++),607 (RLYSGISGLEL; listed as Homo sapiens) [compound 607]
2,“++” (>20% = ++),374 (FLLQQHLISA; listed as Homo sapiens) [compound 374]
3,“+++” (>50 = +++),481 (GLIEDYEALL; listed as Homo sapiens) [compound 481]
4,“++” (>20% = ++),127 (KIGDEPPKV; listed as Homo sapiens) [compound 127]
5,“+++” (>50 = +++),578 (FLDPGGPMMKL; listed as Homo sapiens) [compound 578]
6,“+++” (>50 = +++),331 (KVDTVWVNV; listed as Homo sapiens) [compound 331]
7,“+++” (>50 = +++),182 (MLLEAPGIFL; listed as Homo sapiens) [compound 182]
8,“+++” (>50 = +++),519 (GLLHLTLLL; listed as Homo sapiens) [compound 519]
9,“++++” (>75% = ++++),4 (GIMEHITKI; listed as Homo sapiens) [compound 4]
10,“+++” (>50 = +++),214 (FLLDLDPLLL; listed as Homo sapiens) [compound 214]
11,“+++” (>50 = +++),302 (ALLQEGEVYSA; listed as Homo sapiens) [compound 302]
12,“+++” (>50 = +++),554 (LLMPSSEDLLL; listed as Homo sapiens) [compound 554]
13,“+++” (>50 = +++),311 (RLYTGMHTV; listed as Homo sapiens) [compound 311]
14,“+++” (>50 = +++),307 (ALPVSLPQI; listed as Homo sapiens) [compound 307]
15,“+++” (>50 = +++),501 (LLDPNVKSIFV; listed as Homo sapiens) [compound 501]
16,“+++” (>50 = +++),169 (NLPEYLPFV; listed as Homo sapiens) [compound 169]
17,“+++” (>50 = +++),46 (ILTEENIHL; listed as Homo sapiens) [compound 46]
18,“++” (>20% = ++),355 (SIQQSIERLLV; listed as Homo sapiens) [compound 355]
19,“+++” (>50 = +++),324 (FLYDEIEAEV; listed as Homo sapiens) [compound 324]
20,“+++” (>50 = +++),490 (FLLQHVQEL; listed as Homo sapiens) [compound 490]
21,“+++” (>50 = +++),103 (TLAEEVVAL; listed as Homo sapiens) [compound 103]
22,“+++” (>50 = +++),591 (SMAELDIKL; listed as Homo sapiens) [compound 591]
23,“+++” (>50 = +++),123 (NLWDLTDASVV; listed as Homo sapiens) [compound 123]

row,"Peptide exchange (MHC class I binding score, peptide exchange yield)",Substance
1,“+++” (>50 = +++),596 (ALLDQTKTLAESAL; listed as Homo sapiens) [compound 596]
2,“+++” (>50 = +++),86 (NLIGKIENV; listed as Homo sapiens) [compound 86]
3,“++++” (>75% = ++++),620 (KLLNKIYEA; listed as Homo sapiens) [compound 620]
4,“+++” (>50 = +++),50 (SLSELEALM; listed as Homo sapiens) [compound 50]
5,“++++” (>75% = ++++),10 (FLATFPLAAV; listed as Homo sapiens) [compound 10]
6,“++” (>20% = ++),258 (ELAERVPAI; listed as Homo sapiens) [compound 258]
7,“+++” (>50 = +++),252 (LLIGTDVSL; listed as Homo sapiens) [compound 252]
8,“+++” (>50 = +++),322 (TLMTSLPAL; listed as Homo sapiens) [compound 322]
9,“+++” (>50 = +++),359 (YLLPESVDL; listed as Homo sapiens) [compound 359]
10,“+++” (>50 = +++),45 (SLWQDIPDV; listed as Homo sapiens) [compound 45]
11,“++” (>20% = ++),318 (GLINTGVLSV; listed as Homo sapiens) [compound 318]
12,“++” (>20% = ++),566 (VIADGGIQNV; listed as Homo sapiens) [compound 566]
13,“++++” (>75% = ++++),51 (LLPDLEFYV; listed as Homo sapiens) [compound 51]
14,“+++” (>50 = +++),76 (ILIDSIYKV; listed as Homo sapiens) [compound 76]
15,“++” (>20% = ++),403 (KLYDRILRV; listed as Homo sapiens) [compound 403]
16,“+++” (>50 = +++),219 (KLSDIGITV; listed as Homo sapiens) [compound 219]
17,“+++” (>50 = +++),171 (LLLPLQILL; listed as Homo sapiens) [compound 171]
18,“+++” (>50 = +++),200 (LLFGSVQEV; listed as Homo sapiens) [compound 200]
19,“+++” (>50 = +++),98 (LIIDQADIYL; listed as Homo sapiens) [compound 98]
20,“+++” (>50 = +++),582 (TLCDVILMV; listed as Homo sapiens) [compound 582]
21,“++” (>20% = ++),574 (YLLQEPPRTV; listed as Homo sapiens) [compound 574]
